Reference: patent publication US20130237684A1 (RESEARCH CORPORATION TECHNOLOGIES, published 2013)
Positions count from the first letter of the chain named. Square brackets hold non-standard residues; d marks the D form. Ends that are not written are not given here. * marks the point of attachment. hSer(lactone) = O=C1OCC[C@@H]1N*

Assays:
Yeast ubiquitin (Sigma) = biological target: T1, Yeast ubiquitin (Sigma) (yeast, UniProt P0CG63 1-76); test: clone isolated by phage display selection on ubiquitin; listed as ubiquitin-binding monobody
T1 construct: mature; also called soluble ubiquitin; free ubiquitin
T1 sequence (P0CG63 1-76 limits assumed): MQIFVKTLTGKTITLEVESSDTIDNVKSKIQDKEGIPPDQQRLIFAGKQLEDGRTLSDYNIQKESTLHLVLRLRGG

[1] = biological target: T2, C-terminal fragment of CD92 (FNfn10 cleaved in the CD loop) (human, UniProt P02751 1578-1631); test: Trp fluorescence titration, 750 mM glycerol, 1 M urea, about 500 nM N-terminal fragment
T2 construct: Start at residue 43 is inferred from the N-terminal fragment ending at Asn42
T2 sequence (P02751 other isoform, or with tags, fused parts or gaps): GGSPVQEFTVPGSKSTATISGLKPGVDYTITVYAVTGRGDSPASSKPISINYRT
Description: (§1) Proteins were dissolved to a final concentration of 500 nM in 20 mM sodium phosphate buffer at pH 6.0 containing 100 mM sodium chloride, 750 mM glycerol unless otherwise noted and various urea concentration between 1 M and 2.5 M. Urea concentration was determined using an Abbe refractometer (Spectronic Instruments) as described (Pace and Sholtz 1997). To obtain ([…] on the reconstitution at conditions without the addition of urea and glycerol, a series of C-terminal fragment-titration experiments with varying urea or glycerol concentrations, respectively, were performed. The dissociation constants in the absence of urea or glycerol were estimated by extrapolation based on experimental data
(§2) A dissociation constant can be determined from a titration experiment where the concentration of the fluorophore is held constant and its corresponding binding partner is added. […] When measuring the dissociation constant, the concentration of the fluorophore has to be lower than or near the dissociation constant. To obtain a more accurate value, a series of titration experiments were performed at higher urea concentration, followed by subsequent extrapolation to compensate for the addition of urea.

[2] = biological target: T2, C-terminal fragment of CD92 (FNfn10 …); test: Trp fluorescence titrations, extrapolated to plain buffer in the reverse order
Description: as §2
(§3) To gain an extrapolation that excluded both glycerol and urea, a stepwise approach was taken that assumed that the two co-solutes had independent effects on the dissociation constant.

[3] = biological target: the molecule itself; test: self-association seen by NMR line broadening
[4] = biological target: T2, C-terminal fragment of CD92 (FNfn10 …); test: Trp fluorescence titrations, extrapolated to plain buffer (no urea, no glycerol)
Description: as §2, §3

[5] = biological target: T2, C-terminal fragment of CD92 (FNfn10 …); test: Trp fluorescence titrations, extrapolated to no urea, 750 mM glycerol
Description: as §1, §2

[6] = biological target: T2, C-terminal fragment of CD92 (FNfn10 …); test: size exclusion chromatography of the mixed fragments of CD92
Description: Size exclusion chromatography was performed on the fragments of CD92 using a Sephadex75 gel filtration column.

FN(C)-STAV11 = biological target: T3, FN(C)-STAV11; test: flow cytometry of mated yeast: surface C-FN3-STAV11 by anti-V5/FITC, captured secreted N-FN3 by anti-FLAG/PE
T3 construct: also called C-FN3-STAV11
T3 chain: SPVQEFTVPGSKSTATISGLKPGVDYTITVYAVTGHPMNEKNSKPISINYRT

B1: ubiquitin-binding monobody 212 (Fn3 with BC loop CWRRA and FG loop RWVGLAW), phage clone (designed binder, not shown: large carriers; small tags and cut ends)
chain: VSDVPRDLEVVAATPTSLLISWDAPCWRRAYYRITYGETGGNSPVQEFTVPGSKSTATISGLKPGVDYTITVYAVTGRWVGLAWSKPISINYRT
notes: also called clone 212
- binding result (Yeast ubiquitin (Sigma)): binds

B2: ubiquitin-binding monobody 214 (Fn3 with BC loop CRRGR and FG loop RGFMWLS), phage clone (designed binder, not shown: large carriers; small tags and cut ends)
chain: B1 chain with W27R, R29G, A30R, W79G, V80F, G81M, L82W, A83L, W84S
notes: also called clone 214
- binding result (Yeast ubiquitin (Sigma)): binds

B3: ubiquitin-binding monobody 213 (Fn3 with BC loop CKHRR and FG loop FADLWWR), phage clone (designed binder, not shown: large carriers; small tags and cut ends)
chain: B1 chain with W27K, R28H, A30R, R78F, W79A, V80D, G81L, L82W, A83W, W84R
notes: also called clone 213
- binding result (Yeast ubiquitin (Sigma)): binds

B4: ubiquitin-binding monobody 215 (Fn3 with BC loop CNWRR and FG loop RAYRYRW), phage clone (designed binder, not shown: large carriers; small tags and cut ends)
chain: B1 chain with W27N, R28W, A30R, W79A, V80Y, G81R, L82Y, A83R
notes: also called clone 215
- binding result (Yeast ubiquitin (Sigma)): binds

Binder: VSDVPRKLQVVAATPTSLLISWDAPAVTVRYYRITYGETGGNGG[hSer(lactone)] (other, not fully specified, also called mutant CD-loop fragment)
- Kd [1]: ~10 nM
- Kd [2]: 3.9 nM
- binding result [3]: binds
- Kd [4]: 3.6 nM
- Kd [5]: ~1.5 nM
- Kd [6]: < 1000 nM

B5: N-FN3 (residues 1-42) followed by the FLAG tag, secreted from yeast (other)
chain: VSDVPRDLEVVAATPTSLLISWDAPAVTVRYYRITYGETGGN
notes: also called wild-type N-terminal fragment; pGalsecFN(N)FLAG; not shown: FLAG tag
- binding result (FN(C)-STAV11): binds
